Data reported in doi:10.1101/2020.01.12.903617, “The peptide sensor motif stabilizes the outward-facing conformation of TmrAB” (bioRxiv, 2020).
No end group written: not given here. fluorescein = fluorescein label attached to the Cys side chain

Assays:
[1] = biological target: T1, TmrAB D125A^TmrB (Thermus thermophilus, UniProt Q72J05 1-600; Q72J04 1-578, D125A); test: fluorescence polarisation; 1.7 uM TmrAB with 50 nM RRY(C^Fluorescein)KSTEL in SEC buffer (20 mM HEPES, 150 mM NaCl, pH 7, 0.05% ß-DDM), 15 minutes on ice, in the absence or presence of 5 mM ATP and 10 mM MgCl2; read at 25°C (the results say 4°C); signal normalized to WT without ATP; conditions: both partners purified
T1 construct: TmrA, Thermus thermophilus, the chain of TmrAB with the canonical Walker B motif; TmrB, Thermus thermophilus, the chain of TmrAB with the non-canonical Walker B motif; also called D125A^TmrB variant
T1 sequence 1: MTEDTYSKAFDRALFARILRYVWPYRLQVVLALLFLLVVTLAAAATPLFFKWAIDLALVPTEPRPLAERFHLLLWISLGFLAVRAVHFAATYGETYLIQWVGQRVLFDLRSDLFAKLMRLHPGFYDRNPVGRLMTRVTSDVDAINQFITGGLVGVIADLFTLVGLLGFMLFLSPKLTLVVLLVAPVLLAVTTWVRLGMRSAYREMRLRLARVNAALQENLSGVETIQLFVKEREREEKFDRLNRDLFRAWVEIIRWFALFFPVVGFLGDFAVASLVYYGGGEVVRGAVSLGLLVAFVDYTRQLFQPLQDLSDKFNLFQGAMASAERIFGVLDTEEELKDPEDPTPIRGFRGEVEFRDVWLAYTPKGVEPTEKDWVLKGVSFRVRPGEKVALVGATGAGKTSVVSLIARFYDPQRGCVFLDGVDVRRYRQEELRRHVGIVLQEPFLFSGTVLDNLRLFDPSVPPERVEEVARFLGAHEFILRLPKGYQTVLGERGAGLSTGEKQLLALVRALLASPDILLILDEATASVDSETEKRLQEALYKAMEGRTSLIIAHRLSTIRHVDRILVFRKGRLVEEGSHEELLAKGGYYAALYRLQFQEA
T1 sequence 2: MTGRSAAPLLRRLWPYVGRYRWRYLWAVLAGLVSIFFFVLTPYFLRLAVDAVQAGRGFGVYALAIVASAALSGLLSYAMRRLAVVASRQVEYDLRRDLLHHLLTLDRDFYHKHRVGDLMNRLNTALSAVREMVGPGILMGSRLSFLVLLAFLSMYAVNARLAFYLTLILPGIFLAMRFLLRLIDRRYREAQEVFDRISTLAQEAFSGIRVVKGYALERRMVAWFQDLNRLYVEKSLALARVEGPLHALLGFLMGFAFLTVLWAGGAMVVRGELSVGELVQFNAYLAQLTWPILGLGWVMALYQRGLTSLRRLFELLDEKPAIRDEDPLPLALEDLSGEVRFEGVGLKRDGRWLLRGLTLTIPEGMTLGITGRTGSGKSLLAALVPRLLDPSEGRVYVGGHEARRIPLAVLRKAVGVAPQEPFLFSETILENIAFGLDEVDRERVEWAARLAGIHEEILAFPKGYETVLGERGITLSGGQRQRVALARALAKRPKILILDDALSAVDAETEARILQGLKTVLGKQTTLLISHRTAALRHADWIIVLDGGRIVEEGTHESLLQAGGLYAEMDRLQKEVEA

[2] = biological target: T2, TmrAB G116A^TmrB (Thermus thermophilus, UniProt Q72J05 1-600; Q72J04 1-578, G116A); test: as above; conditions: both partners purified
T2 construct: TmrA, Thermus thermophilus, the chain of TmrAB with the canonical Walker B motif; TmrB, Thermus thermophilus, the chain of TmrAB with the non-canonical Walker B motif
T2 sequence 1: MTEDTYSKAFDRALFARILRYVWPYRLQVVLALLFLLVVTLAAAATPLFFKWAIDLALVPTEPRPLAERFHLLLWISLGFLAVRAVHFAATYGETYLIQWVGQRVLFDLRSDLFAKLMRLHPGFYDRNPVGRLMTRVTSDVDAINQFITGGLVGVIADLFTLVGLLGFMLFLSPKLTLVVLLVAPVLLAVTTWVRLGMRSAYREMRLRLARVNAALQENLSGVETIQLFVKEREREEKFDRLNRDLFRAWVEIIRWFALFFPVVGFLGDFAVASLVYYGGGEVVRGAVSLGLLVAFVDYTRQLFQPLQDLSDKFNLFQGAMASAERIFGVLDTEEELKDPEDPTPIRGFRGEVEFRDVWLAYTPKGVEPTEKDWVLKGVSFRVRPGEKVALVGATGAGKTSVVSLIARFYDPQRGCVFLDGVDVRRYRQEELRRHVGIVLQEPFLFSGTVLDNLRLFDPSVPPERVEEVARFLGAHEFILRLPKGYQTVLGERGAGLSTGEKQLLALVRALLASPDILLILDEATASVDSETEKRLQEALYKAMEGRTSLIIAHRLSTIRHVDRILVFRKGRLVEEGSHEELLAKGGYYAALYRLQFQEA
T2 sequence 2: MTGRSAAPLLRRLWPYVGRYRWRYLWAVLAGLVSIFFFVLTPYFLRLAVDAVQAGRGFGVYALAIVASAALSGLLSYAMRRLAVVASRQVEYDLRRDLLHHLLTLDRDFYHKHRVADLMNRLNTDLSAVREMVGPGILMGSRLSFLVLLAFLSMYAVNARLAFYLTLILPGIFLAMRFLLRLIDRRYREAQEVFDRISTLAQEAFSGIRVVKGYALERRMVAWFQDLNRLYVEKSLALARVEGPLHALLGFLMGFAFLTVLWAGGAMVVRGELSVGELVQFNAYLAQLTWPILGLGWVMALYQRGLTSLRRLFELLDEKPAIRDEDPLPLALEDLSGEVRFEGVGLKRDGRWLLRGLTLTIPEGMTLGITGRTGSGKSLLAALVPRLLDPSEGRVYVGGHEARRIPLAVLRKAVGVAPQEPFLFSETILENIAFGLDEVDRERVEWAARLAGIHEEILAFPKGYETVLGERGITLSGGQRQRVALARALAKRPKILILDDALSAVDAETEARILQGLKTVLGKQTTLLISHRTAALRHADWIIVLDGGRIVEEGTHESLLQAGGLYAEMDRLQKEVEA

B1: fluorescent transport substrate peptide RRY(C^Fluorescein)KSTEL (peptide)
peptide: RRYC(fluorescein)KSTEL
notes: fluorescein-labelled transport substrate peptide of TmrAB; also called fluorescently-labeled peptide substrate; peptide substrate; source: bought: Genscript
[1]
  binding result: binds
[2]
  binding result: binds
